The values below come from the Immune Epitope Database (IEDB).

The term Kd denotes the constant that tells how readily two partners part at equilibrium. High values mean lower affinity, low ones higher affinity.

One assay addresses HLA-B*15:01. The assay can be described thus: IEDB peptide-MHC binding, purified MHC/direct/fluorescence; filed as Kd, often an IC50 or EC50 that approximates it; ≥ and ≤ were set here for values at or beyond the usual limits of such assays.
A further assay concerns the target HLA-B*57:01. The assay is described as above.
In assay [1] the target is HLA-B*48:01. The assay is described as above.
The target of a further assay is HLA-B*58:01. The description is as above.
In another assay the target is HLA-A*29:02. The assay is described as above.
For a further assay, the target named is HLA-B*27:05. Described as above.
The next assay has as its target HLA-B*44:02. The description is as above.
Another assay concerns the target HLA-B*18:01. The description is as above.
In a further assay the target is HLA-B*08:02. The assay is described as above.
The target in the next assay is HLA-B*08:01. Described as above.
Another assay deals with HLA-B*46:01. Described as above.
In the next assay the target is HLA-B*73:01. The assay is described as above.
For a further assay, the target named is HLA-A*30:01. The assay is described as above. Conditions: source organism: Salmonella enterica subsp. enterica serovar Typhi.
Another assay has as its target HLA-A*01:01. The description is as above.
For the next assay, the target named is HLA-A*11:01. The description is as above.
A further assay has as its target HLA-B*40:01. Described as above.
The next assay addresses HLA-C*07:02. Described as above. To be noted: source organism: Salmonella enterica subsp. enterica serovar Typhi str. CT18.
The target in the next assay is HLA-A*26:01. The description is as above.
In the next assay the target is HLA-A*03:01. The assay is described as above.
In another assay the target is HLA-A*02:01. The assay is described as above.
The target of another assay is HLA-C*06:02. Described as above. Conditions: source organism: Salmonella enterica subsp. enterica serovar Typhi str. CT18.
Another assay deals with HLA-A*31:01. Described as above.
For the next assay, the target named is HLA-A*69:01. Described as above.
The next assay concerns the target HLA-B*45:06. The assay can be described thus: IEDB peptide-MHC binding, purified MHC/competitive/fluorescence; filed as Kd, often an IC50 or EC50 that approximates it; ≥ and ≤ were set here for values at or beyond the usual limits of such assays. To be noted: source organism: Mycobacterium tuberculosis variant bovis BCG str. Pasteur 1173P2.
Another assay concerns the target HLA-B*15:42. Described as above. To be noted: source organism: Mycobacterium tuberculosis variant bovis BCG str. Pasteur 1173P2.
The target of the next assay is HLA-B*83:01. The assay is described as above. Conditions: source organism: Mycobacterium tuberculosis variant bovis BCG str. Pasteur 1173P2.
In the next assay the target is HLA-A*03:19. Described as above. Conditions: source organism: Mycobacterium tuberculosis variant bovis BCG str. Pasteur 1173P2.
Assay [2] deals with HLA-B*48:01. Described as above. To be noted: source organism: Orthomarburgvirus marburgense.
In the next assay the target is HLA-A*26:02. Described as above. Conditions: source organism: Orthomarburgvirus marburgense.
Another assay addresses HLA-B*15:09. The assay can be described thus: IEDB peptide-MHC binding, purified MHC/direct/fluorescence; filed as Kd, often an IC50 or EC50 that approximates it; ≥ and ≤ were set here for values at or beyond the usual limits of such assays. Conditions: source organism: Ravn virus - Ravn, Kenya, 1987.
The next assay concerns the target HLA-A*68:02. Described as above. To be noted: source organism: Marburg virus - Musoke, Kenya, 1980.
In a further assay the target is HLA-B*15:17. Described as above. Conditions: source organism: Marburg virus - Musoke, Kenya, 1980.
For the next assay, the target named is HLA-B*07:02. Described as above.
The target of a further assay is HLA-B*39:01. The description is as above. Conditions: source organism: Marburg virus - Musoke, Kenya, 1980.
The next assay addresses HLA-B*08:03. Described as above. To be noted: source organism: Vibrio cholerae.
Where [3] appears, read: source organism: Mammarenavirus lassaense.
Setting [4] is: source organism: Mycobacterium tuberculosis.
Setting [5] is: source organism: Salmonella enterica.
[6] abbreviates: source organism: Salmonella enterica subsp. enterica serovar Typhi.
The mark [7] stands for this setting: source organism: Marburg virus - Musoke, Kenya, 1980.
[8] abbreviates: source organism: Ravn virus - Ravn, Kenya, 1987.
Setting [9] is: source organism: Vibrio cholerae.

Where only a bound is given, the exact number is not on record here.

With QLDQRRALL, the Kd with HLA-B*15:01 (setting [3]) is ≥ 20 µM; with HLA-B*57:01 (setting [3]), ≥ 20 µM; in the assay with HLA-B*48:01 [1] (setting [3]), ≥ 20 µM; with HLA-B*58:01 (setting [3]), ≥ 20 µM; with HLA-A*29:02 (setting [3]), ≥ 20 µM; with HLA-B*27:05 (setting [3]) it was ≥ 20000 nM. Also, the Kd in the assay with HLA-B*44:02 (setting [3]) is ≥ 20 µM; in the assay with HLA-B*18:01 (setting [3]), ≥ 20 µM; in the assay with HLA-B*08:02 (setting [3]), 15.1 µM; with HLA-B*08:01 (setting [3]) it was 773 nM; with HLA-B*46:01 (setting [3]), ≥ 20 µM.

Regarding QRIAVPVTK, the Kd in the assay with HLA-B*48:01 [1] (setting [4]) was ≥ 20 µM; in the assay with HLA-B*27:05 (setting [4]) it was 95 nM; with HLA-B*73:01 (source organism: Mycobacterium tuberculosis str. Haarlem), ≥ 20 µM.

With RRRQWASCM, the Kd in the assay with HLA-A*30:01 was ≥ 20 µM; with HLA-B*15:01 (setting [5]), ≥ 20 µM; with HLA-B*58:01 (setting [5]), ≥ 20 µM; with HLA-A*01:01 (setting [5]), ≥ 20 µM; with HLA-A*11:01 (setting [5]), ≥ 20 µM; in the assay with HLA-B*27:05 (setting [6]), 77.4 nM. Further, the Kd with HLA-B*44:02 (setting [5]) was ≥ 20 µM; with HLA-B*40:01 (setting [5]), ≥ 20 µM; with HLA-C*07:02 it was 45 nM; in the assay with HLA-A*26:01 (setting [5]) it was ≥ 20 µM; with HLA-A*03:01 (setting [5]), ≥ 20 µM; in the assay with HLA-A*02:01 (setting [5]) it was ≥ 20 µM. For the same sequence, the Kd with HLA-B*08:01 (setting [6]) is 13900 nM; with HLA-C*06:02, 24 nM; in the assay with HLA-A*31:01 (setting [5]), ≥ 20 µM; in the assay with HLA-B*73:01 (source organism: Salmonella enterica subsp. enterica serovar Typhimurium) it was ≥ 20 µM; in the assay with HLA-A*69:01 (setting [5]), ≥ 20 µM.

For the sequence RWRWFRAAM, the Kd in the assay with HLA-B*45:06 was ≥ 5 µM; with HLA-B*15:42 it was ≥ 5 µM; with HLA-B*83:01 it was ≥ 5 µM; with HLA-A*03:19, 814 nM.

As for THYSGNIVH, the Kd in the assay with HLA-B*48:01 [2] was ≥ 20 µM; with HLA-A*26:02, ≥ 20 µM; in the assay with HLA-B*15:01 (setting [7]) it was ≥ 20 µM; with HLA-B*15:09, 46 nM; in the assay with HLA-A*68:02 it was ≥ 20 µM; with HLA-B*57:01 (setting [7]) it was ≥ 20 µM. Also, the Kd with HLA-B*58:01 (setting [7]) is ≥ 20 µM; with HLA-A*01:01 (setting [7]), ≥ 20 µM; with HLA-B*27:05 (setting [7]), ≥ 20000 nM; with HLA-B*18:01 (setting [7]), ≥ 20 µM; with HLA-B*40:01 (setting [7]), ≥ 20 µM; in the assay with HLA-B*08:02 (setting [8]), ≥ 20 µM. For the same sequence, the Kd is ≥ 20 µM with HLA-A*26:01 (setting [8]); ≥ 20 µM with HLA-A*02:01 (setting [7]); ≥ 20000 nM in the assay with HLA-B*08:01 (setting [8]); ≥ 20 µM with HLA-B*15:17; ≥ 20 µM in the assay with HLA-B*46:01 (setting [7]); ≥ 20 µM with HLA-B*07:02 (setting [7]). Also, the Kd was ≥ 20 µM with HLA-A*69:01 (setting [7]) and 27.4 nM with HLA-B*39:01.

Regarding VLKLRFWLI, the equilibrium dissociation constant (Kd) in the assay with HLA-B*15:01 (setting [9]), with HLA-B*57:01 (setting [9]), with HLA-B*48:01 [1] (setting [9]), with HLA-B*58:01 (setting [9]), with HLA-A*01:01 (setting [9]) and with HLA-A*29:02 (setting [9]) was ≥ 20 µM in each case. Also, the Kd is ≥ 20 µM with HLA-A*11:01 (setting [9]); ≥ 20000 nM in the assay with HLA-B*27:05 (setting [9]); ≥ 20 µM in the assay with HLA-B*44:02 (setting [9]); 188 nM with HLA-B*08:03; ≥ 20 µM in the assay with HLA-B*18:01 (setting [9]); ≥ 20 µM in the assay with HLA-B*40:01 (setting [9]). For the same sequence, the Kd with HLA-B*08:02 (setting [9]) was ≥ 20 µM; with HLA-A*03:01 (setting [9]), ≥ 20 µM; in the assay with HLA-A*02:01 (setting [9]), ≥ 20 µM; with HLA-B*08:01 (setting [9]), 34 nM; with HLA-B*46:01 (setting [9]), ≥ 20 µM; in the assay with HLA-A*31:01 (setting [9]) it was ≥ 20 µM. Further, the Kd with HLA-B*07:02 (setting [9]) and with HLA-A*69:01 (setting [9]) was ≥ 20 µM throughout.
